Reference: article PMC2937989 (The Journal of Biological Chemistry, 2010)

B1: chicken vinculin domain 1 (Vd1; residues 1–258) (domain or fragment, UniProt P12003 1-258, looked up)
chain: MPVFHTRTIESILEPVAQQISHLVIMHEEGEVDGKAIPDLTAPVSAVQAAVSNLVRVGKETVQTTEDQILKRDMPPAFIKVENACTKLVRAAQMLQADPYSVPARDYLIDGSRGILSGTSDLLLTFDEAEVRKIIRVCKGILEYLTVAEVVETMEDLVTYTKNLGPGMTKMAKMIDERQQELTHQEHRVMLVNSMNTVKELLPVLISAMKIFVTTKNTKSQGIEEALKNRNFTVEKMSAEINEIIRVLQLTSWDEDAW

What was measured:
[1] = target: B1; test: SEC
[2] = target: talin(1359–1659), talin 9-helix module (mouse, UniProt P26039 1359-1659); test: SEC
Chain of talin(1359–1659), talin 9-helix module (P26039 1359-1659): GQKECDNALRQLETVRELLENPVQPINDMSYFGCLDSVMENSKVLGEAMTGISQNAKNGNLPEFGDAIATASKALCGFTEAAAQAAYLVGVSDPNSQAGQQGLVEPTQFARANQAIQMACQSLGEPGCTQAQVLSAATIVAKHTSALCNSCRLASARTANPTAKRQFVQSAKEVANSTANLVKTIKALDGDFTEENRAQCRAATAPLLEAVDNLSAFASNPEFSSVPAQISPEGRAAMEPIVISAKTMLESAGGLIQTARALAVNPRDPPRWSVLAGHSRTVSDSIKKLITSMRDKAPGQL

| binding result [1] | binding result [2] | Binder |
| --- | --- | --- |
| binds |  | talin 4-helix bundle (residues 1458–1584) (domain or fragment, mouse, UniProt P26039 1458-1584, looked up) QQGLVEPTQFARANQAIQMACQSLGEPGCTQAQVLSAATIVAKHTSALCNSCRLASARTANPTAKRQFVQSAKEVANSTANLVKTIKALDGDFTEENRAQCRAATAPLLEAVDNLSAFASNPEFSSV |
|  | binds | B1 |
